First the molecules themselves.
T1: PUF4 RNA-binding domain (Saccharomyces cerevisiae, UniProt P25339 537-888)
T1 sequence: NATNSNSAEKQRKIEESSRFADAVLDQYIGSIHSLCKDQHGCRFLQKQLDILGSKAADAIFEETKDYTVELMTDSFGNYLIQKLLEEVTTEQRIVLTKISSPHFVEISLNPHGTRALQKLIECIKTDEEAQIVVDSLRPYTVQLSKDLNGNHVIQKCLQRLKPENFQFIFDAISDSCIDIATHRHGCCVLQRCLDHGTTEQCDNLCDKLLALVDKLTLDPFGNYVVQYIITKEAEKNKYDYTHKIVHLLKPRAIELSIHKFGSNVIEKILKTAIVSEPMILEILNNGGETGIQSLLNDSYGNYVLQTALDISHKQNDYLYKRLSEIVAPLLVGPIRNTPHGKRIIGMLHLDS

Experimental findings from PMC9352680, “A comprehensive thermodynamic model for RNA binding by the Saccharomyces cerevisiae Pumilio protein PUF4” are described below.

For this data set, the target named is T1, PUF4 RNA-binding domain. The data set is described as follows: Mg; RNA-MaP; 20 mM Na-HEPES pH 7.4, 30 mM KOAc, 0.75 mM MgCl2, 0.1% Tween-20, 5% glycerol, 0.1 mg/mL BSA, 2 mM DTT; 25 C; 0.0125-409.6 nM protein. Conditions: tags: N-His6-TEV cleaved; C-SNAP kept, Cy3B-labelled; label: tethered on chip by stalled RNA polymerase.
Consider UCUCUUUGUAAUAAUGUCUCUU (ssRNA) [Ic_S1_P5E.1_K5.1_C5.1_H5.1_A5.1_[T5A]_F5.1_[T8A]_[A10G]_T5.1], for which binding was put at a Kd of 521 nM.
Turning to UCUCUUUGUAGCUUGAUCUCUU (ssRNA) [Ic_S1_P5E.1_K5.1_C5.1_H5.1_A5.1_[T5G]_[T6C]_[A7T]_F5.1_[T9G]_T5.1], the affinity, expressed as Kd, was 651 nM.
With UCUCUUUGUAUGUAAGUCUCUU (ssRNA) [Ic_S1_P5E.1_K5.1_C5.1_H5.1_A5.1_[T6G]_[A7T]_F5.1_[T8A]_[T9A]_[A10G]_T5.1], binding was characterised by a dissociation constant (Kd) of 446 nM.
Turning to UCUCUUUGUAAGUUAGUCUCUU (ssRNA) [Ic_S1_P5E.1_K5.1_C5.1_H5.1_A5.1_[T5A]_[T6G]_[A7T]_F5.1_[T9A]_[A10G]_T5.1], binding was characterised by a dissociation constant (Kd) of 17.2 nM.
Turning to UCUCUUUGUAGCGUAAUCUCUU (ssRNA) [Ic_S1_P5E.1_K5.1_C5.1_H5.1_A5.1_[T5G]_[T6C]_[A7G]_F5.1_[T9A]_T5.1], the Kd stood at 300 nM.
UCUCUUUCUCUAUAUCUCUU (ssRNA) [Ib_S1_P3E.1_K3.1_C3.1_H3.1_[G2C]_[A4C]_A3.1_F3.1_T3.1] displayed a Kd greater than 2300 nM.
Regarding UCUCUUUGUACCCUUUUCUCUU (ssRNA) [Ic_S1_P5E.1_K5.1_C5.1_H5.1_A5.1_[T5C]_[T6C]_[A7C]_F5.1_[A10T]_T5.1], binding was put at a Kd of 35.9 nM.
As to UCUCUUUGUAUUCGUUUCUCUU (ssRNA) [Ic_S1_P5E.1_K5.1_C5.1_H5.1_A5.1_[A7C]_F5.1_[T8G]_[A10T]_T5.1], the Kd stood at 378 nM.
For the molecule UCUCUUUGUAAGUUAAUCUCUU (ssRNA) [Ic_S1_P5E.1_K5.1_C5.1_H5.1_A5.1_[T5A]_[T6G]_[A7T]_F5.1_[T9A]_T5.1], the Kd amounted to 66.4 nM.
Next, UCUCUUUGUAUACGACUCUCUU (ssRNA) [Ic_S1_P5E.1_K5.1_C5.1_H5.1_A5.1_[T6A]_[A7C]_F5.1_[T8G]_[T9A]_[A10C]_T5.1]: 49 nM; UCUCUUUGUACAUUACUCUCUU (ssRNA) [Ic_S1_P5E.1_K5.1_C5.1_H5.1_A5.1_[T5C]_[T6A]_[A7T]_F5.1_[T9A]_[A10C]_T5.1]: 0.694 nM.
Consider UCUCUUUGUAACACCUUCUCUU (ssRNA) [Ic_S1_P5E.1_K5.1_C5.1_H5.1_A5.1_[T5A]_[T6C]_F5.1_[T8C]_[T9C]_[A10T]_T5.1], for which the affinity, expressed as Kd, was 621 nM.
UCUCUUUGUAAUUCCUUCUCUU (ssRNA) [Ic_S1_P5E.1_K5.1_C5.1_H5.1_A5.1_[T5A]_[A7T]_F5.1_[T8C]_[T9C]_[A10T]_T5.1] came in with a Kd of 448 nM.
In the case of UCUCUUUGUACGAAUGUCUCUU (ssRNA) [Ic_S1_P5E.1_K5.1_C5.1_H5.1_A5.1_[T5C]_[T6G]_F5.1_[T8A]_[A10G]_T5.1], binding was put at a Kd of 819 nM.
Molecule UCUCUUUGUACUUACGUCUCUU (ssRNA) [Ic_S1_P5E.1_K5.1_C5.1_H5.1_A5.1_[T5C]_[A7T]_F5.1_[T8A]_[T9C]_[A10G]_T5.1] had a Kd of 504 nM.
UCUCUUUGUAAUACCUUCUCUU (ssRNA) [Ic_S1_P5E.1_K5.1_C5.1_H5.1_A5.1_[T5A]_F5.1_[T8C]_[T9C]_[A10T]_T5.1] yielded a Kd of 690 nM.
On to UCUCUUUUUUUAUAUCUCUU (ssRNA) [Ib_S1_P3E.1_K3.1_C3.1_H3.1_[G2T]_[A4T]_A3.1_F3.1_T3.1], for which the Kd is greater than 2300 nM.
UCUCUUUGUACUGCACUCUCUU (ssRNA) [Ic_S1_P5E.1_K5.1_C5.1_H5.1_A5.1_[T5C]_[A7G]_F5.1_[T8C]_[T9A]_[A10C]_T5.1]: binding was put at a Kd of 724 nM.
Regarding UCUCUUUCUUUAUAUCUCUU (ssRNA) [Ib_S1_P3E.1_K3.1_C3.1_H3.1_[G2C]_[A4T]_A3.1_F3.1_T3.1], the Kd is greater than 2300 nM.
For the molecule UCUCUUUGUAAUUUGCUCUCUU (ssRNA) [Ic_S1_P5E.1_K5.1_C5.1_H5.1_A5.1_[T5A]_[A7T]_F5.1_[T9G]_[A10C]_T5.1], the Kd is 81.9 nM.
UCUCUUUGUAUCUAUAUCUCUU (ssRNA) [Ic_S1_P5E.1_K5.1_C5.1_H5.1_A5.1_[T6C]_[A7T]_F5.1_[T8A]_T5.1] had a Kd of 11.5 nM.
Molecule UCUCUUUGUAUAUAAUCUCUU (ssRNA) [Ia_S1_P4E.1_K4.1_C4.1_H4.1_A4.1_F4.1_[T8A]_T4.1] came in with a Kd of 4.12 nM.
In turn, UCUCUUUGUACCCCUCUCUCUU (ssRNA) [Ic_S1_P5E.1_K5.1_C5.1_H5.1_A5.1_[T5C]_[T6C]_[A7C]_F5.1_[T8C]_[A10C]_T5.1] returned a Kd of 1240 nM.
Next, UCUCUUUGUACCAUCCUCUCUU (ssRNA) [Ic_S1_P5E.1_K5.1_C5.1_H5.1_A5.1_[T5C]_[T6C]_F5.1_[T9C]_[A10C]_T5.1]: 12.5 nM.
The molecule UCUCUUUGUACAUCCAUCUCUU (ssRNA) [Ic_S1_P5E.1_K5.1_C5.1_H5.1_A5.1_[T5C]_[T6A]_[A7T]_F5.1_[T8C]_[T9C]_T5.1] showed a Kd of 29.4 nM.
In turn, UCUCUUUGUAUCGAUCUCUCUU (ssRNA) [Ic_S1_P5E.1_K5.1_C5.1_H5.1_A5.1_[T6C]_[A7G]_F5.1_[T8A]_[A10C]_T5.1] displayed a Kd of 1870 nM.
Next, UCUCUUUGUAAUCAGCUCUCUU (ssRNA) [Ic_S1_P5E.1_K5.1_C5.1_H5.1_A5.1_[T5A]_[A7C]_F5.1_[T8A]_[T9G]_[A10C]_T5.1]: 1300 nM; UCUCUUUGUACGUGUUUCUCUU (ssRNA) [Ic_S1_P5E.1_K5.1_C5.1_H5.1_A5.1_[T5C]_[T6G]_[A7T]_F5.1_[T8G]_[A10T]_T5.1]: 98.8 nM.
UCUCUUUGUACCCCAAUCUCUU (ssRNA) [Ic_S1_P5E.1_K5.1_C5.1_H5.1_A5.1_[T5C]_[T6C]_[A7C]_F5.1_[T8C]_[T9A]_T5.1] yielded a Kd of 1350 nM.
Regarding UCUCUUUUUGUAUAUCUCUU (ssRNA) [Ib_S1_P3E.1_K3.1_C3.1_H3.1_[G2T]_[A4G]_A3.1_F3.1_T3.1], the dissociation constant Kd was 25.1 nM.
Consider UCUCUUUGUAAUAACUUCUCUU (ssRNA) [Ic_S1_P5E.1_K5.1_C5.1_H5.1_A5.1_[T5A]_F5.1_[T8A]_[T9C]_[A10T]_T5.1], for which the equilibrium dissociation constant (Kd) was 1100 nM.
Consider UCUCUUUGUAGCAUACUCUCUU (ssRNA) [Ic_S1_P5E.1_K5.1_C5.1_H5.1_A5.1_[T5G]_[T6C]_F5.1_[T9A]_[A10C]_T5.1], for which binding was put at a Kd of 8.64 nM.
UCUCUUUGUACUGUGUUCUCUU (ssRNA) [Ic_S1_P5E.1_K5.1_C5.1_H5.1_A5.1_[T5C]_[A7G]_F5.1_[T9G]_[A10T]_T5.1] returned a Kd of 27.2 nM.
Next, UCUCUUUGUAUGUGCCUCUCUU (ssRNA) [Ic_S1_P5E.1_K5.1_C5.1_H5.1_A5.1_[T6G]_[A7T]_F5.1_[T8G]_[T9C]_[A10C]_T5.1]: 838 nM; UCUCUUUGUAAAUCAGUCUCUU (ssRNA) [Ic_S1_P5E.1_K5.1_C5.1_H5.1_A5.1_[T5A]_[T6A]_[A7T]_F5.1_[T8C]_[T9A]_[A10G]_T5.1]: 26.1 nM; UCUCUUUGUAUCGCCAUCUCUU (ssRNA) [Ic_S1_P5E.1_K5.1_C5.1_H5.1_A5.1_[T6C]_[A7G]_F5.1_[T8C]_[T9C]_T5.1]: 919 nM.
Regarding UCUCUUUGUAUAUUCCUCUCUU (ssRNA) [Ic_S1_P5E.1_K5.1_C5.1_H5.1_A5.1_[T6A]_[A7T]_F5.1_[T9C]_[A10C]_T5.1], the Kd was determined as 5.93 nM.
In the case of UCUCUUUGUAUACCCGUCUCUU (ssRNA) [Ic_S1_P5E.1_K5.1_C5.1_H5.1_A5.1_[T6A]_[A7C]_F5.1_[T8C]_[T9C]_[A10G]_T5.1], the affinity, expressed as Kd, was 675 nM.
UCUCUUUGUAAACCGCUCUCUU (ssRNA) [Ic_S1_P5E.1_K5.1_C5.1_H5.1_A5.1_[T5A]_[T6A]_[A7C]_F5.1_[T8C]_[T9G]_[A10C]_T5.1] showed a Kd of 625 nM.
The molecule UCUCUUUGUACCACCGUCUCUU (ssRNA) [Ic_S1_P5E.1_K5.1_C5.1_H5.1_A5.1_[T5C]_[T6C]_F5.1_[T8C]_[T9C]_[A10G]_T5.1] displayed a Kd of 821 nM.
On to UCUCUUUGUAUACGUUUCUCUU (ssRNA) [Ic_S1_P5E.1_K5.1_C5.1_H5.1_A5.1_[T6A]_[A7C]_F5.1_[T8G]_[A10T]_T5.1], for which the affinity, expressed as Kd, was 43.4 nM.
For the molecule UCUCUUUGUAUUCCAAUCUCUU (ssRNA) [Ic_S1_P5E.1_K5.1_C5.1_H5.1_A5.1_[A7C]_F5.1_[T8C]_[T9A]_T5.1], the dissociation constant (Kd) was determined as 526 nM.
Molecule UCUCUUUGUACAAUCUUCUCUU (ssRNA) [Ic_S1_P5E.1_K5.1_C5.1_H5.1_A5.1_[T5C]_[T6A]_F5.1_[T9C]_[A10T]_T5.1] came in with a Kd of 25.9 nM.
In turn, UCUCUUUGUAUCAUGCUCUCUU (ssRNA) [Ic_S1_P5E.1_K5.1_C5.1_H5.1_A5.1_[T6C]_F5.1_[T9G]_[A10C]_T5.1] had a dissociation constant Kd of 11.3 nM.
Regarding UCUCUUUGUAUUGGUUUCUCUU (ssRNA) [Ic_S1_P5E.1_K5.1_C5.1_H5.1_A5.1_[A7G]_F5.1_[T8G]_[A10T]_T5.1], the Kd was 711 nM.
As for UCUCUUUGUAUCUUGAUCUCUU (ssRNA) [Ic_S1_P5E.1_K5.1_C5.1_H5.1_A5.1_[T6C]_[A7T]_F5.1_[T9G]_T5.1], binding was characterised by a dissociation constant (Kd) of 72.1 nM.

Broadly, the Kd is the free concentration of one partner at which half of the binding sites on the other are occupied at equilibrium, for simple one-to-one binding. A lower Kd goes with higher affinity.
